The target in assay [1] is T1, virus-like particles (VLPs) of BK polyomavirus VP-1 protein, serotype Ia (BK virus (BKPyV), serotype Ia, UniProt P03088 1-361).
T1 construct: self-assembled native VLPs coated on ELISA plates; also called VLP Ia; BKV VP-1, serotype Ia
T1 chain: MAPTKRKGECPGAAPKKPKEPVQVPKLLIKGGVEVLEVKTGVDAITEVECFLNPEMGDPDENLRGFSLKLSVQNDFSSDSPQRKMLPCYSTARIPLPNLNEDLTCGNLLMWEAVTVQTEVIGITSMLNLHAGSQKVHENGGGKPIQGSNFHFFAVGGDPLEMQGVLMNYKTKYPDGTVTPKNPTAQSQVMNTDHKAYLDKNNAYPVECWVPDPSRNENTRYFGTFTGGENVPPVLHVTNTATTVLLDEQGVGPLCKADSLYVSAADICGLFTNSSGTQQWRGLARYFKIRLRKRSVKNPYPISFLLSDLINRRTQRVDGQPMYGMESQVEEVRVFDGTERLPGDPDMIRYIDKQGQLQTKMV
As to the kind of experiment: ELISA on coated VLP; supernatant 1/160. Background: An ELISA detects its analyte on a solid surface through an enzyme-linked reagent.
Procedure: (§1) To do this, the VLPs produced were deposited at a concentration of 1 μg/mL in PBS and incubated overnight at +4° C. The wells were then blocked for 1 h at +37° C. with a PBS/FCS (phosphate-buffered saline/fetal calf serum) mixture. After dilution in a dilution buffer containing FCS, PBS and Tween® 20, the various hybridoma culture supernatants were added for 1 h at +37° C. The wells were washed four times in a row with Wash Buffer and a secondary anti-mouse antibody coupled to peroxidase was added to the 1:2000 dilution for 1 h at +37° C. The wells were washed four more times and the substrate (OPD (ortho phenylene diamine)+H₂O₂) was added for 30 min at room temperature. A stop solution (H₂SO₄ 4N) was then added and each well was read by measuring the absorbance at 492 nm with a spectrophotometer. The value obtained for the average of the control wells (PBS in the first step) is subtracted from the optical density values obtained for each well.

Assay [2] concerns the target T2, virus-like particles (VLPs) of BK polyomavirus VP-1 protein, serotype Ib2 (BK virus (BKPyV), serotype Ib2, PA …, UniProt P03088 1-362).
T2 construct: native VLPs; also the immunogen; also called VLP Ib2; BK Ib2
T2 chain: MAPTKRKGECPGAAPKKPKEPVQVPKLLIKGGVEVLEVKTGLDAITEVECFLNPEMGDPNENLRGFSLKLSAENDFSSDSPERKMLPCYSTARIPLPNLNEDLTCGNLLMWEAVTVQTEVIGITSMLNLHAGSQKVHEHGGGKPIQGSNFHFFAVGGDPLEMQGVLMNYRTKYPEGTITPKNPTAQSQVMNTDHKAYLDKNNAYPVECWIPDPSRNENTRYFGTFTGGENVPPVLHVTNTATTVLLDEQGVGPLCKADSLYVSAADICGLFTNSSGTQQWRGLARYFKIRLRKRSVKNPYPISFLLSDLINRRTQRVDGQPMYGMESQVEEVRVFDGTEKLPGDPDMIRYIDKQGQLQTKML
In words: ELISA on coated VLP; supernatant 1/160.
Procedure: as §1

Assay [3] addresses T3, virus-like particles (VLPs) of BK polyomavirus VP-1 protein, serotype II (BK virus (BKPyV), serotype II, UniProt P14996 1-362).
T3 construct: native VLPs; also called VLP II
T3 chain: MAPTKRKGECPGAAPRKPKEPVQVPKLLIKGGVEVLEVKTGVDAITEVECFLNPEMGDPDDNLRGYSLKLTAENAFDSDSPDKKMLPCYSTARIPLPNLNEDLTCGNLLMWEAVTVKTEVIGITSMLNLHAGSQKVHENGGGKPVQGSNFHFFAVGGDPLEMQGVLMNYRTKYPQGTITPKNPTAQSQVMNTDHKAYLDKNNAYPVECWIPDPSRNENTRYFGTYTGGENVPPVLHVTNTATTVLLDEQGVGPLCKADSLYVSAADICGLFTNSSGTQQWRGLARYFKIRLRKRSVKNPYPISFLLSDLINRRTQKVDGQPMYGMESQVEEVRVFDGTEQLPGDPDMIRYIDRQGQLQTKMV
As to the kind of experiment: ELISA on coated VLP; supernatant 1/160.
Procedure: as §1

Assay [4] has as its target T4, virus-like particles (VLPs) of BK polyomavirus VP-1 protein, serotype IV (BK virus (BKPyV), serotype IV, UniProt P14996 1-362).
T4 construct: native VLPs; also called VLP IV
T4 chain: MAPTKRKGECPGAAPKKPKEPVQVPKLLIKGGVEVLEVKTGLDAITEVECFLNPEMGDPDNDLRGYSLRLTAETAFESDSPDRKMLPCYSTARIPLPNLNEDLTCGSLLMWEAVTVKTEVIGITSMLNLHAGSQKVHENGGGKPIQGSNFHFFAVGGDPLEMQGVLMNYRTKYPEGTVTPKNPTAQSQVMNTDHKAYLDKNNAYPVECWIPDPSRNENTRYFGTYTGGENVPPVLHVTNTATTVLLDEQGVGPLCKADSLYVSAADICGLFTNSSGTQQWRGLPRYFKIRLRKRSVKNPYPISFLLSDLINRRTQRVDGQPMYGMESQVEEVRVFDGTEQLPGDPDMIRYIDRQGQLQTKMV
As to the kind of experiment: ELISA on coated VLP; supernatant 1/160.
Procedure: as §1

Assay [5] has as its target T1, virus-like particles (VLPs) of BK …. As to the kind of experiment: ELISA on coated VLP; supernatant 1/640.
Procedure: as §1
In assay [6] the target is T2, virus-like particles (VLPs) of BK …. As to the kind of experiment: ELISA on coated VLP; supernatant 1/640.
Procedure: as §1
Assay [7] concerns the target T3, virus-like particles (VLPs) of BK …. In words: ELISA on coated VLP; supernatant 1/640.
Procedure: as §1
Assay [8] concerns the target T4, virus-like particles (VLPs) of BK …. In words: ELISA on coated VLP; supernatant 1/640.
Procedure: as §1
For assay [9], the target named is T3, virus-like particles (VLPs) of BK …. In words: ELISA on coated VLP; supernatant 1/2 560.
Procedure: as §1
Assay [10] deals with T1, virus-like particles (VLPs) of BK …. In words: ELISA on coated VLP; supernatant 1/20 480.
Procedure: as §1
In assay [11] the target is T2, virus-like particles (VLPs) of BK …. As to the kind of experiment: ELISA on coated VLP; supernatant 1/20 480.
Procedure: as §1
The target in assay [12] is T3, virus-like particles (VLPs) of BK …. In words: ELISA on coated VLP; supernatant 1/20 480.
Procedure: as §1
For assay [13], the target named is T4, virus-like particles (VLPs) of BK …. As to the kind of experiment: ELISA on coated VLP; supernatant 1/20 480.
Procedure: as §1

B1: monoclonal antibody ‘H6’ secreted by clone BK6A2H6 (antibody, V domains shown)
VH: EVQLQQSGPELVKPGASVKISCKASGYSFTGYFMNWVKQSHGKSLEWIGRINPYNGDTFYNQKFKGKATLTVDKSSSTAHMELLSLTSEDSAVYYCGSYYYGDYFDYWGQGTTLTVSS
VL: SIVMTQIPKFLLVSEGDRVTITCKASQSVSNDVAWYQQKSGQSPKLLIYYASNRYTGVPDRFTGSGYGTDFTFTISTVQAEDLAVYFCQQDYSSPLTFGAGTKLELKR
Turning to B1, the “OD 492 nm” value came out at 3.06 OD in assay [1]; 0.4 OD in [2]; 0.14 OD in assay [3]; 3.14 OD in assay [4]; 2.49 OD in assay [5]; 0.17 OD in assay [6]. Also, the “OD 492 nm” value in assay [7] is 0.08 OD; in [8], 1.59 OD; in [9], 0.06 OD; in assay [10] it was 0.16 OD; in assay [11] it was 0.06 OD; in assay [12] it was 0.06 OD. Also, the “OD 492 nm” value in assay [13] is 0.12 OD.

B2: monoclonal antibody ‘F6’ secreted by clone BK6A2F6 (antibody)
heavy: EVQLQQSGPELVKPGASVKISCKASGYSFTGYFMNWVKQSHGKSLEWIGRINPYNGDTFYNQKFKGKATLTVDKSSSTAHMELLSLTSEDSAVYYCGSYYYGDYFDYWGQGTTLTVSSAKTTPPSVYPLAPGSAAQTNSMVTLGCLVKGYFPEPVTVTWNSGSLSSGVHTFPAVLQSDLYTLSSSVTVPSSTWPSETVTCNVAHPASSTKVDKKIVPRDCGCKPCICTVPEVSSVFIFPPKPKDVLTITLTPKVTCVVVDISKDDPEVQFSWFVDDVEVHTAQTQPREEQFNSTFRSVSELPIMHQDWLNGKEFKCRVNSAAFPAPIEKTISKTKGRPKAPQVYTIPPPKEQMAKDKVSLTCMITDFFPEDITVEWQWNGQPAENYKNTQPIMDTDGSYFVYSKLNVQKSNWEAGNTFTCSVLHEGLHNHHTEKSLSHSPGK
light: […]
For B2, the “OD 492 nm” value in [1] came to 3.21 OD; in assay [2], 0.4 OD; in assay [3], 0.27 OD; in assay [4], 3.46 OD; in assay [5], 3.07 OD; in assay [6], 0.19 OD. The “OD 492 nm” value in assay [7] turned out to be 0.14 OD; in assay [8], 2.86 OD; in assay [9], 0.07 OD; in [10], 0.27 OD; in assay [11], 0.11 OD; in [12], 0.1 OD. For the same molecule, in assay [13], the “OD 492 nm” value was 0.26 OD.
